# Data from paper PMC3663545, “Allosteric Activation of Trypanosomatid Deoxyhypusine Synthase by a Catalytically Dead Paralog*^([image sbox.jpg])^♦” (The Journal of Biological Chemistry, 2013).
# B1: TbDHSc-TbDHSp (Trypanosoma brucei brucei TREU927) (protein)
# chain 1: MAELAKSAVLVSSCTDDLLGDAKQVVVGPNQEDLHSAEAVLNRYSTVGFQASNLARAFSICEMMLTPQSPSPSLMPTEGDQASESPVMVQPTLFVGVTANLFGTGCREAIRFLCTECVPLPNGVEPATPLDDMAGISCDGTGALKPSPCDSRALIHVLVVSGGAMEHDIRRACESYKLSRDGAEEEGEQFHHPVERDRSRSKGTDCHFGNVRYNSSGVASRNLFSCVMRCLVKRLAEAQRKEKANREAAPIPEAYYDVCSWAITPSTLWYMAGLWMADIFTEALQETGEVTDEKVASEEGLKRAKSTVLYWAARNGVPIFSPSLTDGDIMEFILTAGDTGVPLLQLDLVADIHRLNRLAMRSRRTGMMILGGGVVKHHVCNANLMRNGADYAVFLNNAQEFDGSDAGARPGEAVSWGKLRLDSTAVKVYSEVTIVFPLIVVHVFVAWVRMMRSKGKENIRS
# chain 2: MSGVPFPSRVIGDLDYSNLLNIGQEEAIRCVLNAYPNIGLEATNLGRARRIVQRALNDNGMDGNKVMLAYTSNLISSGLRDTFACLARENRIGAVVTTAGGVEEDVIKCLGDTLVGDFALNDHALRNNGLNRVGNLLVPNDNYRNFEDFFVPLLRRLHEQQRDSRWTTKTTPSQIIAEIGAALESVRPNDCGSSLIYWCYRNDIPVFSPAFTDGSMGDMIYFYNYSRKGLVVDPVPDVRRLRQLGCKSTNVGRITCIVLGAGLPKHHLLRNVQADAVVYVTTGSDADGCESSCNVMADRANGLLSPNCDVVRVHGDATIISPLLLLRSSDGKEKVGVREDGN
# notes: His6-SUMO-TbDHSc co-expressed with tagless TbDHSp in E. coli; SUMO tag cut with Ulp1, tag-free; 50 kDa + 37 kDa; 2:2 heterotetramer, 175 kDa
# B2: TbDHSp (T. brucei deoxyhypusine synthase prozyme (activating) subunit), recombinant, untagged (natural protein, UniProt Q4GZD1 1-342, looked up)
# chain: B1 chain 2
# notes: T. brucei deoxyhypusine synthase prozyme subunit (TbDHSp), catalytically dead paralog, TriTrypDB Tb927.1.870; open reading frame cloned untagged into the HindIII-KpnI site of pT7-FLAG-MAT-Tag-2 with a stop codon inserted; 37 kDa on SDS-PAGE; the vector's C-terminal tag was removed by insertion of a stop codon; also called tagless TbDHSp; untagged TbDHSp
# Legend:
# [1] = target: T1, TbDHSc-TbDHSp (Trypanosoma brucei, UniProt Q38BX0+Q4GZD1); assay: [3H]spermidine incorporation into eIF5A, nitrocellulose filter binding assay; type: biochemical
# T1 construct: gene DHSc; His6-SUMO-TbDHSc co-expressed with tagless TbDHSp in E. coli; SUMO tag cut with Ulp1, tag-free; 50 kDa + 37 kDa; 2:2 heterotetramer, 175 kDa
# T1 sequence (Q38BX0 1-461): B1 chain 1
# T1 sequence (Q4GZD1 1-342): B1 chain 2
# Description: [3H]spermidine incorporation into eIF5A, nitrocellulose filter binding assay on TbDHSc-TbDHSp | GC7 inhibited the activity of TbDHSc-TbDBHSp and the growth of BSF cells at similar concentrations
# [2] = substrate: NC(=O)c1ccc[n+]([C@@H]2O[C@H](COP(=O)(O)OP(=O)(O)OC[C@H]3O[C@@H](n4cnc5c(N)ncnc54)[C@H](O)[C@@H]3O)[C@@H](O)[C@H]2O)c1; assay: as above; type: biochemical, Trypanosoma brucei; conditions: 100 μM TbeIF5A, 100 μM spermidine, pH 9.3 glycine-NaOH, 37 °C, 1 mM DTT, varied: cofactor
# Description: (§1) [3H]spermidine incorporation into eIF5A, nitrocellulose filter binding assay on TbDHSc-TbDHSp
# [3] = substrate: NCCCCNCCCN; assay: as above; type: biochemical, Trypanosoma brucei; conditions: 1 mM NAD+, 100 μM TbeIF5A, pH 9.3 glycine-NaOH, 37 °C, 1 mM DTT, labelled compound
# Description: as §1
# [4] = target: T2, TbDHSc (T. brucei deoxyhypusine synthase, catalytic subunit), recombinant, expressed as His6-SUMO-TbDHSc (T. brucei, UniProt Q38BX0 1-461); assay: AUC; sedimentation velocity of the purified TbDHSc-TbDHSp complex at A280 0.7, 0.2 and 0.05 in 50 mM Hepes, 150 mM NaCl, pH 8.0; 20 °C, 40,000 rpm; interference data analysed with SEDFIT c(s); conditions: both partners purified
# T2 construct: T. brucei deoxyhypusine synthase catalytic subunit (TbDHSc), TriTrypDB Tb927.10.2750; open reading frame cloned into pE-SUMO Kan; 50 kDa on SDS-PAGE; it was removed with Ulp1 before gel filtration and sedimentation velocity; not shown: His6-SUMO, N-terminal, cleaved
# T2 sequence (looked up): B1 chain 1
molecule,measurement,setting,value
N=C(N)NCCCCCCCN [GC7],IC50,[1],1500 ± 150 nM
B1,Km,[2],82 ± 16 µM
same,kcat,[2],0.018 ± 0.001 s⁻¹
same,Km,[3],43 ± 5 µM
same,kcat,[3],0.015 ± 0.001 s⁻¹
B2,stoichiometry N,[4],1 TbDHSp per TbDHSc (2:2 heterotetramer)
